Data from US20230183349A1.

Biological target: PD1 aglycosylated at Asn58 (human) (UniProt Q15116)
Assay: SPR Biacore T200, antibody captured by anti-human IgG, PD1-ECD as analyte, 25 °C, 1:1 Langmuir

Kd: 80.2 nM
koff: 0.027 s⁻¹
kon: 336000 M⁻¹ s⁻¹
B1: PD1-0103-0312 (antibody, V domains shown)
VH: EVQLLESGGGLVQPGGSLRLSCAASGFSFSSYTMSWVRQAPGKGLEWVATISGGGRDIYYPDSVKGRFTISRDNSKNTLYLQMNSLRAEDTAVYYCVLLTGRVYFALDSWGQGTLVTVSS
VL: DIVMTQSPDSLAVSLGERATINCKASESVDTSDNSFIHWYQQKPGQSPKLLIYRSSTLESGVPDRFSGSGSGTDFTLTISSLQAEDVAVYYCQQNYDVPWTFGQGTKVEIK
